# Measured values from the supplement of paper PMC6757056.
# ± gives the standard deviation of the averaged measurements.
# B1: library; a variant is named by its letters at N, in order (parent)
# chain: GCUGUCACCGGUGCUUGGUACGUUAUAUUCAGCCGGUCUGAUGAGUCUNNNNNNAGACGAAACAGC
# Columns and labels:
# (6R,S)-folinic acid [1] = variants of: B1; experiment: normalized RNA/DNA level without ligand (relative to sTRSVctl = 100) (log10 (% of sTRSVctl)); HEK293T overexpressing SLC46A1; higher = less ribozyme self-cleavage, higher mRNA level; settings: without (6R,S)-folinic acid; ligand present: no
# In short: (§1)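 Ribozyme switch library plasmids with mCherry reporters (eGFP in certain ligand experiments) went into HEK293T cells at 4 µg per 6-well well. Where ligand was used, it was applied 1 h before transfection, and total RNA was extracted with EDTA 72 h later for reverse transcription, amplification, barcoding and sequencing. RNA level is the RNA-to-DNA read ratio normalized to a spiked-in non-cleaving sequence or to the leading sequences, then scaled and log-transformed. Scaling was ×100 with log10, the leading set comprised 25 sequences, and the cutoff was ≥100 DNA reads.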
# (6R,S)-folinic acid [2] = variants of: B1; experiment: normalized RNA/DNA level with ligand (relative to sTRSVctl = 100) (log10 (% of sTRSVctl)); HEK293T overexpressing SLC46A1; ligand concentration (+) RNA-Seq: 6 mM; higher = less ribozyme self-cleavage, higher mRNA level; settings: with (6R,S)-folinic acid; ligand present: yes
# In short: as §1
Variant,"normalized RNA/DNA level without ligand (log10) ((6R,S)-folinic acid [1])","normalized RNA/DNA level with ligand (log10) ((6R,S)-folinic acid [2])"
GGUCAA,1.99 ± 0.028,2 ± 0.024
GGUCAG,2.039 ± 0.018,2.04 ± 0.035
GGUCAC,1.99 ± 0.031,2 ± 0.039
AGUAAG,1.897 ± 0.0041,2.01 ± 0.057
AGUAAU,1.99 ± 0.02,2 ± 0.026
AGUAAC,2.003 ± 0.0042,2.01 ± 0.026
GGGUGU,2.025 ± 0.011,2.06 ± 0.049
GGGUGG,2.056 ± 0.0092,2.04 ± 0.043
UGGUUU,1.95 ± 0.021,1.97 ± 0.026
UGGUUC,2.01 ± 0.011,2.01 ± 0.081
UGGUUA,1.945 ± 0.013,2.01 ± 0.071
UGGCGC,2.08 ± 0.027,2.05 ± 0.055
UGGCGU,1.99 ± 0.031,2.03 ± 0.05
UGGCGA,1.98 ± 0.0056,2.067 ± 0.0097
UGGCGG,1.8196 ± 0.0011,1.99 ± 0.056
GGUACC,2.067 ± 0.015,2.03 ± 0.04
GGUACU,2.063 ± 0.0044,2.04 ± 0.022
GGUACG,2.025 ± 0.017,2.04 ± 0.049
GGGGCA,2.054 ± 0.0064,2.02 ± 0.025
GGGGCU,2.079 ± 0.017,2.055 ± 0.0086

Variant,"normalized RNA/DNA level without ligand (log10) ((6R,S)-folinic acid [1])","normalized RNA/DNA level with ligand (log10) ((6R,S)-folinic acid [2])"
GGGGCG,2.073 ± 0.016,2.06 ± 0.045
CGGUAC,2.0071 ± 0.0016,1.992 ± 0.0076
CGGUAG,1.93 ± 0.025,1.963 ± 0.018
CGGUAU,1.976 ± 0.0076,2.003 ± 0.013
CGGGGG,1.91 ± 0.034,2.05 ± 0.064
CGGGGC,2.03 ± 0.023,2.003 ± 0.014
CGGGGU,2.039 ± 0.015,2.07 ± 0.024
CGGGGA,2.104 ± 0.0034,2.11 ± 0.065
CGGCAA,2.086 ± 0.0085,2.05 ± 0.023
CGGCAC,2.102 ± 0.011,2.052 ± 0.0022
CGGCAG,1.997 ± 0.0087,2.01 ± 0.052
GGGACG,2.039 ± 0.01,2.06 ± 0.051
GGGACC,2.049 ± 0.0006,2.04 ± 0.024
AGGAAG,1.89 ± 0.0078,2.01 ± 0.043
CGGUGG,1.93 ± 0.024,1.99 ± 0.026
CGGUGA,2.029 ± 0.014,2.04 ± 0.043
CGGUGC,2.053 ± 0.0063,2.007 ± 0.0042
AGGGAA,1.965 ± 0.0039,2.01 ± 0.025
AGGGAU,1.949 ± 0.0057,1.98 ± 0.031
CGUAGU,2.011 ± 0.0076,2 ± 0.034

Variant,"normalized RNA/DNA level without ligand (log10) ((6R,S)-folinic acid [1])","normalized RNA/DNA level with ligand (log10) ((6R,S)-folinic acid [2])"
CGUAGC,2.03 ± 0.023,2.03 ± 0.022
CGUAGA,1.9919 ± 0.00011,1.99 ± 0.043
CGUAGG,1.829 ± 0.015,1.979 ± 0.013
AGUACA,1.983 ± 0.0056,2 ± 0.038
AGUACC,2.07 ± 0.0045,2.04 ± 0.044
AGUACU,2.008 ± 0.0088,2.02 ± 0.043
CGGGAG,1.932 ± 0.0051,2 ± 0.023
CGUAAC,1.98 ± 0.025,1.99 ± 0.043
CGUAAG,2.011 ± 0.0091,2.03 ± 0.018
CGGACC,2.072 ± 0.0055,2.0545 ± 0.0011
CGGACU,2.043 ± 0.0042,2.01 ± 0.023
CGGACG,2.017 ± 0.012,2.02 ± 0.0049
CGGACA,2.037 ± 0.0086,2.02 ± 0.03
AGGGCG,1.962 ± 0.008,2.02 ± 0.027
AGGGCC,2.07 ± 0.023,2.06 ± 0.06
AGGGCU,2.022 ± 0.0078,2.05 ± 0.024
AGGGCA,2.033 ± 0.02,2.03 ± 0.042
AGGAGC,1.99 ± 0.016,2.01 ± 0.04
